Assay results as given in PMC10720262 (Cell Reports, 2023).
Where a chain is given by its changes, count along the chain named.

B1: CL-453181 (antibody, V domains shown)
VH: QVQLVESGGGVVQPGRSLRLSCAASGFTFSYYGMHWVRQAPGKGLEWVSIIWYDGSNKFYADSVKGRFTISRDNSKDTLYLEMNSLRAEDTAVYYCARVEFYNGSGRDFYYGLDVWGQGTTVTVSS
VL: EIVMTQSPATLSVSPGEGATLSCRASQSVSSNLAWYQQKPGQAPRLLISGASTRATGVPARFSGSGSGTEFALTISSLQSEDFAVYYCQQYSKLWTFGQGTKVEIK
B2: CL-444882 (antibody, V domains shown)
VH: QVHLVESGGGVVQPGRSLRLSCATSGFSFSSYGMHWVRQAPGKGLEWVAIIWYDGSNKFYADSVKGRFTISRDNSENTLYLQMNSLRAEDTAVYYCAKVGLSYSGRTGAFDIWGQGTMVTVSS
VL: DIQMTQSPSTLSASVGDRVTITCRASQSISIWLAWYQQKPGKAPKLLIYKAASLESGVPSRISGSGSGTEFTLTISSLQPDDFATYYCQQYNSYWTFGQGTKVEIK
B3: CL-458015 (antibody, V domains shown)
VH: QVHLVESGGGVVQPGRSLRLSCAASGFTFSNYGMHWVRQAPGKGLDWVAIIWYDGSNKFYADSVQGRFTISRDNSKNTLYLQMNSLRAEDTAVYYCAKVQDLLGVPSTLGDHYTTDVWGQGTSVTVSS
VL: B2 VL with V19I, S30N, I31D, P40A, A52S, I62F, E70D, P80T, T85I, S93H
B4: CL-447563 (antibody, V domains shown)
VH: QVQLVASGGGVVQPGRSLRLSCAASGFTFSNYGMHWVRQAPGKGLEWVAIIWYDGSKKYYSDSVKGRFTISRDNSKNTLYLQMNSLRAEDTAVYYCARAYGSGSYSDDYYGMDVWGQGTTVTVSS
VL: B2 VL with I31T, A52S, S53N, I62F, N92Y
B5: CL-459404 (antibody, V domains shown)
VH: B4 VH with Y80N
VL: B2 VL with I31P, Y36F, A52S, S53N, I62F, N92Y, S93T
B6: CL-449869 (antibody, V domains shown)
VH: QVQLVESGGGAVQPGRSLRLSCAASGFTFSYNGMHWVRQAPGKGLEWVAIIWYDGSNKFYADSVKGRFTISRDNSKDTLYLEMNSLRAEDTAIYYCARAWNYDDKKYSMDVWGQGTTVTVSS
VL: B2 VL with I31S, A52S, I62F, S93Y, Y94F, K106R
B7: CL-447609 (antibody, V domains shown)
VH: QVQLVESGGGVVQPGRSLRLSCAASGFTFNNYGMHWVRQAPGKGLDWVAIIWFDGSNKYYADSVKGRFTISRDNSKNTLYLQMNSLRAEDTAVYYCARVGDHSKYRNRGDAFDIWGQGTMVTVSS
VL: B2 VL with I31S, A52S, I62F, F83S, Y87F, N92D
B8: CL-445827 (antibody, V domains shown)
VH: QVQLVASGGGVVQPGRSLRLSCVASGFTFSFFGMHWVRQTPGRGLEWVAIIWYDGGHKFYADSVKGRFTISRDNSKDTLYLQMNSLRAEDTAVYYCARAEDNMARGNIDYSKYGMDVWGQGTTVTVSS
VL: B2 VL with A13V, V15I, I31T, A52S, S53N, I62F, E70D, S77G, N92F
B9: CL-449849 (antibody, V domains shown)
VH: QVQLVESGGGAVQAGTSLRLSCAASGFTFSYNGMHWVRQGPGKGLEWVAIIWYDGGNKFYADSVKGRFTISRDNSKNMLYLQMNRLRAEDTAVYYCARAWNFADNKYSMDVWGQGTTVTVSS
VL: B2 VL with I31S, K45Q, A52S, I62F, N92Y, S93I, E104D
B10: CL-449007 (antibody, V domains shown)
VH: QVQVVESGGGVVQPGRSLRLSCAASGFTFSNYGMHWVRQAPGKGLEWVAIIWYDGSHKFYANSVKGRFTISRDNSKNTLFLQMNSLRAEDTAVYYCARVGNGNSDWTDAFDIWGQGTMVTVSS
VL: B2 VL with S30N, I31S, A52S, I62F, S93T
B11: CL-460406 (antibody, V domains shown)
VH: QIQLVESGGGVVQPGRSLRLSCAASGFTFSNSGMHWIRQAPGKGLEWVTIIWYDGSNKYYADSVKGRFTISRDNSKNTLYLQMNSLRAEDTAIYYCARAYSSSSDDYYGMDVWGQGTTVTVSS
VL: B2 VL with I31S, A52S, I62F, E70D, Y91F, N92Y, S93N, K106T
B12: CL-459075 (antibody, V domains shown)
VH: B4 VH with A49S
VL: B2 VL with I31T, Y36C, A52S, S53N, I62F, N92Y
B13: CL-447703 (antibody, V domains shown)
VH: QVQLVESGGGVVQPGRSLRLSCEASGFTFSDHGMHWVRQGPGKGLEWVSIIWYDGSNKYYADSVKGRFTISRDNSKNTLYLEMNRLRAEDTALYYCARVWNHDDYKYSMDVWGQGTTVTVSS
VL: not shown
B14: CL-445901 (antibody, V domains shown)
VH: QVQLVESGGGVVQPGRSLRLSCAASGFTFSNYGIHWVRQAPGKGLEWVALIWFNGNNKFYADSVEGRFTVSRDNSKNTLYLQLNSLRAEDTAVYYCARAYYFASGNYMDYWGQGTLVTVSS
VL: DIQMTQSPSSVSASMGDRVTITCRASQDISSSLAWYQQKPGKAPILLISFASSLHSGVPSRFSGSGSGTDFTLTISSLQPEDFATYSCQQANSFPWTFGQGTRVEVK
B15: CL-445457 (antibody, V domains shown)
VH: QVQLVESGGAVVQPGTSLRLSCAASGFTFSNYGIHWVRQAPGKGLQWVALIWYNGNNKFYADSVQGRFTISRDNSKNILYLQINSLSAEDTAVYYCARAFYSDSGNYMDYWGQGALVTVSS
VL: DIQMTQSPSSVSASVGDRVTITCRARQDISSRLAWYQQKPGKAPKILIYGASSLQSGVPSRFSASGSGTDFTLTISSLQPEDVASYFCQQANSFPWTFGQGTKVEIK
B16: CL-445635 (antibody, V domains shown)
VH: B15 VH with I34M, D62E, Q65E, T69I, Y80F, I83M, S102Y, M108L, Q113P, A115S
VL: B15 VL with V83F, S85T, F87Y
B17: CL-449724 (antibody, V domains shown)
VH: QVHLVASGGGVVQPGRSLRLSCEVTGFTFSSYGMHWVRQDPGRGLEWVAIIWYDGSNKFYADSVKGRFTISRDNSKNTLYLQMNSLRAEDTAVYYCARSYGILTGYQTKYGMDVWGQGTTVTVSS
VL: not shown
B18: CL-460506 (antibody, V domains shown)
VH: QVQLVESGGGVVQPGRSLRLSCAASGFTFSNYGMHWVRQAPGKGLEWMAIIWYDGSNKYYADSVKGRFTISRDNSMNTLYLQMNSLRPEDTALYYCARAFYYGSGTLDYWGQGTLVTVSS
VL: EIVLTQSPATLSVSPGERATLSCRASQSVSSHLAWYQQKFGQAPRLLIYGASNRATGIPARFSGSGSGTEFTLTISILQSEDFAVYYCQQYNNWFTFGPGTKIDIK
B19: CL-447737 (antibody, V domains shown)
VH: QVQLVESGGGVVQPGRSLRLSCAASGFTFSSYGMHWVRQAPGKGLEWVAIIWFDGSNIFYEDSVKGRFTISRDNSKNTLYLQMNSLRAEDTAVYYCAKVWNYDSDYYSMDVWGQGTTVTVSS
VL: not shown
B20: CL-444906 (antibody, V domains shown)
VH: B6 VH with A11V, A23T, Y31T, N32Y, E82Q, N101D, Y102K, D103V, K105D, S108G
VL: not shown
B21: CL-449759 (antibody, V domains shown)
VH: QVHLVESGGGVVQPGESQRLSCAASGFTFSNYGMHWVRQAPGKGLEWVALIWYDGSNKFYADSVKGRFTISRDNSKNTLYLHMNSLRAEDTAMYYCAKVPNWNDDKYTMDVWGQGTTVTVTS
VL: not shown
B22: CL-450034 (antibody, V domains shown)
VH: B9 VH with F102Y, N105S
VL: not shown
B23: CL-460369 (antibody, V domains shown)
VH: QVQLVESGGGVVQPGRSLRLSCAASGFTFSNYGMHWVRQAPGKGLEWVGIIWYDGSNKYYIDSVKGRFTISRDNSRNTLYLQINSLRAEDTAVYYCARDGGWNDDYYYVMDVWGQGTTVTVSS
VL: DIVMTQSPDSLAVSLGEGATINCKSSQSVLYSSNNKNYLAWYQQKPGQPPKVLIYWASIRESGVPDRFSGSGSGTDFTLTISSLQAEDVAVYYCQQYYSMCSFGQGTKLEIK
B24: CL-447376 (antibody, V domains shown)
VH: QVQLVESGGGVVQPGRSLRLSCAASGFNFNNYGMHWVRQAPVMGLEWVAIIWYDGSNKFYADSVKGRFTISRDNSQNTLFLQMNSLRAEDTGIYYCARSGGEMGNFDYWGQGTLVTVSS
VL: DIVMTQSPLSLPVTLGQPASISCRSSQSLVYSNGDTYLDWFQLRPGQSPRRLIYKVSHRDSGVPDRFSGSGSGTEFTLRISRVEAEDVGIYYCMQGTHYWTFGQGTEVEIK

Biological target: recombinant full-length PfCSP (Plasmodium falciparum circumsporozoite protein, strain NF54) (Plasmodium falciparum NF54, UniProt P19597)
Sequence (P19597 20-375): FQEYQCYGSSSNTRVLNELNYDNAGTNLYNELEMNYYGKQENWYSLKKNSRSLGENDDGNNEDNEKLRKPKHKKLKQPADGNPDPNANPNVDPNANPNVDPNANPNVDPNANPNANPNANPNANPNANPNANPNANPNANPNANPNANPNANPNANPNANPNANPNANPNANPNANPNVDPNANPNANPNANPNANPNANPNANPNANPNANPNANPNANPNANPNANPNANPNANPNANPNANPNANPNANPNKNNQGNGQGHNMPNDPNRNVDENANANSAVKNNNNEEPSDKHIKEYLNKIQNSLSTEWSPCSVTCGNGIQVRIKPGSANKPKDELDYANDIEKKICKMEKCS

Binding result, binds:
B1, B2, B3, B4, B5, B6, B7, B8, B9, B10, B11, B12, B13, B14, B15, B16, B17, B18, B19, B20, B21, B22, B23, B24
